Test results published in publication PMC7857400.

Molecular target: SARS-CoV-2 spike protein receptor binding domain (RBD) (SARS-CoV-2) (UniProt P0DTC2)

| Substance | IC50 of neutralisation, pseudovirus luciferase assay [pM] |
| --- | --- |
| homotrimeric Nb20 (Nb20_(3)) | 4.1 |
| homotrimeric Nb21 (Nb21_(3)) | 1.3 |
